The target in the assay is stabilized homotrimeric spike protein of SARS-CoV-2 (SARS-CoV-2 (Wuhan-Hu-1 sequence, strain …, UniProt P0DTC2, stabilised)). Kind of assay: bead-based multiplex ACE2 competition assay.

Results on 1 molecule are retold here after paper doi:10.1101/2020.09.22.308338 (bioRxiv, 2020).

B1: nanobody NM1230 (VHH)
VHH: QVQLVESGGGLVRPGGSLRLSCVGSGFTFSGYAMNWYRQAPGKALELVAGISNAGDLTHYEEPMKGRVAISRANDKNTVYLQMDDLKPEDTAVYRCHAPGVRVGTGERKDVWGQGAQVTVSS
For B1, the binding result is reported as “binds”.
